Where no end group is shown, it is not given here. The star is where a group is joined. Biotin = O=C1N[C@H]2[C@H](CS[C@H]2CCCCC(=O)*)N1

Three molecules from article PMC6981161 can be followed below.

In assay [1] the target is proteins of hBMECs (protein extract coated in microtiter wells, ELISA with recombinant ligands) (human (endogenous in hBMECs)). The assay can be described thus: ELISA; protein extract of hBMECs coated in microtiter wells, blocked; recombinant ligand added; detected with HisProbe-HRP conjugate and TMB substrate, absorbance at 450 nm; semi-quantitative.
The target in assay [2] is proteins of hBMECs (protein extract coated in microtiter wells, ELISA with synthetic analogues) (human (endogenous in hBMECs)). Put plainly: ELISA; protein extract of hBMECs coated in microtiter wells, blocked; biotinylated synthetic peptide added; detected with streptavidin-HRP conjugate; semi-quantitative. In general terms: ELISA stands for enzyme-linked immunosorbent assay.

Regarding “recombinant NadA (neisserial adhesin A) of Neisseria meningitidis, globular domain with the first coiled-coil structure (domain or fragment)”, the absorbance at 450 nm (absorbance at 450 nm) in assay [1] was 1.14. With “recombinant domain III of protein E of West Nile virus (domain or fragment)”, the absorbance at 450 nm (absorbance at 450 nm) in assay [1] was determined as 2.2. GTTYGVCSK(Biotin) [DIII-1 synthetic analogue (…-biotin)] showed an absorbance in assay [2] of 2.06 absorbance.
